Assay results taken from article PMC6699074, “Structural and functional characterization of a novel cold-active S-formylglutathione hydrolase (SfSFGH) homolog from Shewanella frigidimarina, a psychrophilic bacterium” (Microbial Cell Factories, 2019).

Assays:
[1] = target: S-formylglutathione hydrolase (SfSFGH) from Shewanella frigidimarina (Shewanella frigidimarina); assay: AUC; SfSFGH in 150 mM NaCl, 20 mM Tris-HCl pH 8.0, 20 °C, 40,000 rpm, monitored at 280 nm, analysed with SEDFIT
purified protein [2] = substrate: CC(=O)Oc1ccc([N+](=O)[O-])cc1; assay: purified protein; type: biochemical, Shewanella frigidimarina; settings: 20 mM Tris-HCl pH 8.0, 120 mM NaCl, room temperature
purified protein [3] = substrate: CCCC(=O)Oc1ccc([N+](=O)[O-])cc1; assay: purified protein; type: biochemical, Shewanella frigidimarina; settings: 20 mM Tris-HCl pH 8.0, 120 mM NaCl, room temperature
purified protein [4] = substrate: CCCCCCCC(=O)Oc1ccc([N+](=O)[O-])cc1; assay: purified protein; type: biochemical, Shewanella frigidimarina; settings: 20 mM Tris-HCl pH 8.0, 120 mM NaCl, room temperature

stoichiometry N [1]	Molecule	Km (purified protein [2])	kcat (purified protein [2])	Km (purified protein [3]) [µM]	Vmax (purified protein [3]) [µM/min]	kcat (purified protein [3]) [s⁻¹]	kcat/Km (purified protein [3]) [M⁻¹ s⁻¹]	Vmax (purified protein [2]) [µM/min]	kcat/Km (purified protein [2]) [M⁻¹ s⁻¹]	Km (purified protein [4]) [µM]	Vmax (purified protein [4]) [µM/min]	kcat (purified protein [4]) [s⁻¹]	kcat/Km (purified protein [4]) [M⁻¹ s⁻¹]
2	S-formylglutathione hydrolase (SfSFGH) from Shewanella frigidimarina (enzyme)												
	SfSFGH (Shewanella frigidimarina NCIMB 400) (protein) MTIENMSVNKSFGGWHKQYSHQSQTLNCEMRFAIYLPPQASSGKKVPVLYWLSGLTCTDENFMQKAGAQALAAELGIAIVAPDTSPRGENVADDEGYDLGKGAGFYVNATQAPWNRHYRMYDYVVDELPKLIESMFPVSDKRSIAGHSMGGHGALVIALRNADAYQSVSAFSPISNPINCPWGKKALTAYLGRDSATWMEYDASVLMRQATQFVPALVDQGDADNFLVEQLKPEVLEAAAKVKGYPLELNYREGYDHSYYFISSFIENHLRFHAEHLGK	515 (± 42.8) µM	0.310 (± 0.0258) s^-1										
	SfSFGH (Shewanella frigidimarina NCIMB 400; W182A) (protein) MTIENMSVNKSFGGWHKQYSHQSQTLNCEMRFAIYLPPQASSGKKVPVLYWLSGLTCTDENFMQKAGAQALAAELGIAIVAPDTSPRGENVADDEGYDLGKGAGFYVNATQAPWNRHYRMYDYVVDELPKLIESMFPVSDKRSIAGHSMGGHGALVIALRNADAYQSVSAFSPISNPINCPAGKKALTAYLGRDSATWMEYDASVLMRQATQFVPALVDQGDADNFLVEQLKPEVLEAAAKVKGYPLELNYREGYDHSYYFISSFIENHLRFHAEHLGK	1.393 ± 0.136 mM	1.85 ± 0.092 s⁻¹	303 ± 49	51.7	8 ± 0.326	26400	323	1300	495 ± 85	28.6	0.144 ± 0.007	300
